Laboratory results taken from publication PMC5586252, “PP2A-B′ holoenzyme substrate recognition, regulation and role in cytokinesis” (Cell Discovery, 2017).

Molecular target: GST-tagged B′γ1 regulatory subunit (UniProt Q13362)
Assay: pull-down; 10 μg GST-tagged B′γ1 immobilised; titrated concentrations of phosphorylated or non-phosphorylated Cyk4 (1–177)

concentration at half maximum binding: 2.5 to 5 µM
lowest concentration at which the interaction is detected: 0.6 µM
Substance: pCyk4 (1–177), Plk1-phosphorylated (from UniProt Q9H0H5 1-177) (domain or fragment)
